Experimental data taken from patent US6960343B2, “Toll/interleukin-1 receptor adapter protein (TIRAP)” (Yale University School of Medicine, priority 2001, dated 2005).

How the values were obtained:
[1] = molecular target: T1, IL-1R (Homo sapiens, UniProt P14778); assay: IL-1R-induced NF-κB activity, luciferase reporter, 293T cells; format: cell-based
T1 construct: expressed in transfected cells; host or cells: 293T cells
T1 sequence (P14778 18-569): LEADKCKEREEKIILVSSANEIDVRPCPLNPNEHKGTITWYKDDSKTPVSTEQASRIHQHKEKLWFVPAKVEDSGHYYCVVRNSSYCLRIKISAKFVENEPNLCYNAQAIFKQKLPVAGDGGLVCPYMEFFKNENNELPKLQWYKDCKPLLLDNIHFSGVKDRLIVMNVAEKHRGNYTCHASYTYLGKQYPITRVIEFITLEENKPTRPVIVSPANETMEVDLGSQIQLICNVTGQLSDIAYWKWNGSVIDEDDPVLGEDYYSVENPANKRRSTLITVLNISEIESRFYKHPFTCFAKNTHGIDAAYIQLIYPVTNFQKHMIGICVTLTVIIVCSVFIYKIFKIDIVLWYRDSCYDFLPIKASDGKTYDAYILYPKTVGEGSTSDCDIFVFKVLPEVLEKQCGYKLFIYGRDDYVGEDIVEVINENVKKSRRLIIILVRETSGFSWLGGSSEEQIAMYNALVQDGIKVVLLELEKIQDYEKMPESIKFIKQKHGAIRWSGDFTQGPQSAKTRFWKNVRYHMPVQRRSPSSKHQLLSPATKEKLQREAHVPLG
T1 sequence (Q9NPH3 21-570 partner): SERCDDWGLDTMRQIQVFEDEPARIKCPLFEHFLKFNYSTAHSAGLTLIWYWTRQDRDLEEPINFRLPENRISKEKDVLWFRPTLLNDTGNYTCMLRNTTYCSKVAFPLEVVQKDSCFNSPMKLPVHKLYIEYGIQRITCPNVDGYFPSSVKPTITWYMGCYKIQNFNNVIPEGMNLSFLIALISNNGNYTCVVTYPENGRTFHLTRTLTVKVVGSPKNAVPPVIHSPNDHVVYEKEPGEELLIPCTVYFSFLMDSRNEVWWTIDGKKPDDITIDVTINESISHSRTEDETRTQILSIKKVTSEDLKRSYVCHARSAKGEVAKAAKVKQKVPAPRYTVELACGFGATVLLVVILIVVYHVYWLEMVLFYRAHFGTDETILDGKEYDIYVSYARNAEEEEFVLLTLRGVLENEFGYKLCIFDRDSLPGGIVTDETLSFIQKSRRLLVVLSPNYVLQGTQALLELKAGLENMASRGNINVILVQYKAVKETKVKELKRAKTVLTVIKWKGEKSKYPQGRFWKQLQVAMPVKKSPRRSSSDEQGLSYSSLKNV
Procedure: Unlike TLR4, neither IL-1R nor TLR9 can induce NF-κB in the absence of MyD88 (Kawai 1999; Schnare 2000; Adache 1998). To assess the possibility that TIRAP is the putative adapter in the MyD88-independent signaling pathway, we tested TIRAP P125H for its ability to inhibit NF-κB activity induced y IL-1R and TLR9. 293T cells were co-transfected with either vector alone (pcDNA3), IL-1R (0.1 μg), and IL-1R AcP (0.1 μg) [Dr. Medzhitov: Please indicate what the IL-1R AcP construct encodes] plasmid cDNAs, with or without increasing concentrations (10 ng, 50 ng, 200 ng) of TIRAP P125H plasmid and the NF-κB-dependent luciferase reporter gene.

[2] = molecular target: T2, TLR9 (Homo sapiens, UniProt Q9NR96); assay: NF-κB activation by CpG stimulation of TLR9-transfected 293T cells; format: cell-based; details: 100 ng, 250 ng construct, CpG 3 μM
T2 construct: TLR9 (encodes full length TLR9); expressed in transfected cells; host or cells: 293T cells
T2 sequence (Q9NR96 26-1032): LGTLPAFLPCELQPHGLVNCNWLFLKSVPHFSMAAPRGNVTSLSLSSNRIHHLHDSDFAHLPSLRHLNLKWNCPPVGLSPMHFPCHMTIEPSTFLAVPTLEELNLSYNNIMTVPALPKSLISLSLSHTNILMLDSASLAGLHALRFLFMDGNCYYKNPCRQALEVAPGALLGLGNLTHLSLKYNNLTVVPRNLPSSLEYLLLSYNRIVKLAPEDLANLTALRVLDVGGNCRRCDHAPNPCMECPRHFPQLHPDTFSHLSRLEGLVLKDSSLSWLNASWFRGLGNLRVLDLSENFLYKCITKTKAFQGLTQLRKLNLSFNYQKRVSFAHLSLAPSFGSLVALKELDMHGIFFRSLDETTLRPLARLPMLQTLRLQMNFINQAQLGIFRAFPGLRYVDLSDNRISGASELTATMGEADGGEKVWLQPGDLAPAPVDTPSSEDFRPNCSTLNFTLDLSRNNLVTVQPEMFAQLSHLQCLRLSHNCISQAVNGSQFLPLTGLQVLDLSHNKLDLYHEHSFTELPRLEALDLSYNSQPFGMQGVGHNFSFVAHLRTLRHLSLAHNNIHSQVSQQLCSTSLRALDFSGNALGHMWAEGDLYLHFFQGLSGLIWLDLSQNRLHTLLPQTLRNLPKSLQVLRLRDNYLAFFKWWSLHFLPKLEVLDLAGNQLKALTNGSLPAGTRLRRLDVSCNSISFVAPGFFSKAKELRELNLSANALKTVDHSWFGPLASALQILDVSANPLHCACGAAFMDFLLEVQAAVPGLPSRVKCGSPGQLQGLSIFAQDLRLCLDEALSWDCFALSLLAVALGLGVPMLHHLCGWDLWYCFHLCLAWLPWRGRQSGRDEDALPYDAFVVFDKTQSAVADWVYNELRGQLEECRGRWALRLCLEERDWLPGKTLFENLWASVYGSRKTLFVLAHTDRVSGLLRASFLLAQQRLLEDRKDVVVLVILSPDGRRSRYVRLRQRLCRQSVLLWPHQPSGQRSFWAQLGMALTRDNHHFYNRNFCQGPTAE
Procedure: To determine whether TIRAP inhibits NF-κB activation induced by CpG-stimulation of TLR9-transfected cells, 293T cells were transfected with vector alone (pcDNA3), TLR9 (50 ng), with or without increasing concentrations (100 ng, 250 ng) of either TIRAP P125H or MyD88 DN. At twenty-four h post transfection, CpG oligonucleotides were added at 3 μM final concentration to TLR9-transfected samples and incubated for 14 more hours before harvesting. […] Thus, TIRAP appears to function downstream of TLR4 but not IL-1R or TLR9, and is likely to be the adapter in the MyD88-independent pathway downstream of TLR4.

inhibition of NF-κB activity induced by IL-1B cytokine [1]: did not inhibit
inhibition of NF-κB activity induced by co-transfected IL-1R and IL-1R AcP ([1]; 293T cells, 10 ng, 50 ng, 200 ng plasmid): did not inhibit
inhibition of NF-κB activation induced by CpG-stimulation of TLR9-transfected cells [2]: did not inhibit
Substance: TIRAP P125H: vector encoding a mutant form of TIRAP containing a proline to histidine mutation at amino acid position 125
